Tested on: LKS^− cells
Assay: Serum-free culture of LKS- myeloid/erythroid progenitors (and CMP, GMP subsets), F4/80 by flow cytometry
Format: cell-based, mouse
Conditions: 72 h, no other growth factors
Protocol: FIGS. 4A-D—Activation of TLRs through MyD88 bypasses normal differentiation cues and drives monocytes/macrophages differentiation of myeloid progenitors. (FIG. 4A) Sorted LKS^− cells from C57BL/6 or MyD88^−/− mice were stimulated with medium alone, LPS (10 μg/ml), Pam3CSK4 (1 μg/ml), M-CSF, or GM-CSF. After 72 h in culture, cells were analyzed by flow cytometry for expression of F4/80. Open histograms depict staining with the isotype matched Ab for F4/80. Percentages given in each histogram indicate the frequencies of F4/80^+ cells and the results are representative of three independent experiments. (FIG. 4B) The bar graph depicts yields, i.e., numbers of F4/80^+ cell recovered per input progenitor. Data represent mean values with standard deviations from triplicate cultures and the results are representative of three independent experiments (*P<0.005). […] After 72 h in culture, cells were analyzed by flow cytometry for expression of F4/80. […] After 24 or 48 h in culture, cells were analyzed by flow cytometry for expression of F4/80. […]
FIG. 13—TLR stimulation causes rapid production of F4/80^+ cells from LKS^− cells. […] Stimulated wells were analyzed after 24 h or 48 h of culture by flow cytometry for expression of F4/80. […]

B1: GM-CSF: Recombinant mouse GM-CSF, colony stimulating factor, 20 ng/ml (protein, UniProt P01587 18-141, looked up)
Granulocyte-macrophage …: APTRSPITVTRPWKHVEAIKEALNLLDDMPVTLNEEVEVVSNEFSFKKLTCVQTRLKIFEQGLRGNFTKLKGALNMTASYYQTYCPPTPETDCETQVTTYADFIDSLKTFLTDIPFECKKPGQK
Acquisition of F4/80 by LKS- cells: only a subset of LKS^− myeloid progenitors responded
